Source: the supplement of paper PMC9170038

Test system: MS2 coat protein
Experiment: apparent KD of MS2 coat protein; designed switch direction (-1 OFF switch, 1 ON switch): -1; higher = weaker reporter binding
Method in brief: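 An oligonucleotide input, 200 uM small-molecule ligand, or no input was present during titration of SNAP-549-labelled MS2 coat protein, which was doubled from 0.7 or 1.5 nM to 3 µM. Designed RNA switches had been transcribed on Illumina chips by stalled E. coli RNA polymerase. Apparent KD per design is the median over clusters of curves fitted to normalised cluster fluorescence.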

[1] = input ligand: microRNA oligo, concentration not stated
[2] = Eterna round: R95, input ligand: FMN 200 uM
[3] = Eterna round: R95, input ligand: microRNA oligo, concentration not stated
[4] = Eterna round: R95, input ligand: none

Row | Sequence | apparent KD of MS2 coat protein (input ligand: FMN 200 uM) [nM] | apparent KD of MS2 coat protein [1] [nM] | apparent KD of MS2 coat protein (input ligand: none) [nM] | apparent KD of MS2 coat protein [2] [nM] | apparent KD of MS2 coat protein [3] [nM] | apparent KD of MS2 coat protein [4] [nM]
1 | GGUAACAUGAGGAUCACCCAUGUGAUACGUUACAUAUAAACCGAGGAUAUACCCUCAGAACGAGGGUAGAAGGUGGGACGACAC [Eternabot solution 8] (Eterna round: R96, puzzle: Exclusion NG 3) | 95.8 | 51.6 | 102 |  |  | 
2 | GGUACUAACACGAGAGUGUUAGUACUAUAAGCUUGUGUUACAUGAGGAUCACCCAUGUCCUCAUAAGCUCGUCUUAU [Mat - Sensor v3 - Turn-off var 2 - D76] (puzzle: Sensor v3, turn-off variant 2) |  |  |  | 137 | 89.6 | 156
3 | GGUACUAUCACCUGAGUGGUAGUGCAACAAGCUUGUGAUACAUGAGGAUCACCCAUGUCCUCAUUUGCUCGUCUUAU [JL-sv3-2.25 JL mod] (Eterna round: R96, puzzle: Sensor v3, turn-off variant 2) | 237 | 858 | 245 |  |  | 
4 | GGUACUAUCACCUGAGUGGUAGUGCAACAAGCUUGUGAUACAUGAGGAUCACCCAUGUCCUCAUUUGCUCGUCUUAU [JL-sv3-2.25 JL mod] (puzzle: Sensor v3, turn-off variant 2) |  |  |  | 209 | 1070 | 217
5 | GGUAGAGUGGUAGGAUAUCCGACUGAAACAGACGGAGAAGGACCACAGUCACUGGGUCCAAAUAUAAUAAACAAUAAAUCUACC [pwkr exNG1 F6.1] (Eterna round: R96, puzzle: Exclusion NG 1) | 307 | 212 | 331 |  |  | 
6 | GGUAUGCAGGCUUUAGGUAACAUGAGGAUCACCCAUGUAGCAGGUCGUAACCAGGUCAUUGGUUCUCAACGCUCGUU [Eternabot (L2) Solution 46] (Eterna round: R97, puzzle: Sensor, turn-off variant 1) | 31.4 |  | 34.4 |  |  | 
7 | GGUCAAGAACAGAACCGCGCUGCCCUUGACCGCUCAUUUACAUGAGGAUCACCCAUGUUUUUUGCUUGUCUUGUUAC [Qugeon] (puzzle: Sensor v3, turn-off variant 2) |  |  |  | 16.2 | 89.6 | 17.3
8 | GGUCAGAUGGUAGGAUAUCCAUAUCGAGUGACCCUUUCAUAACAUGAGGAUCACCCAUGUCGGUGGGAGAAGGGCCGUAUGGCG [salish99_ExNG02_R04_022] (Eterna round: R96, puzzle: Exclusion NG 2) | 69.8 | 34.9 | 51.3 |  |  | 
9 | GGUCGACAUGAGGAUCACCCAUGUUAGGAUAUUAGCCAAUGGUCUCGUUAUGAGUCAUUAAGAAGGAACAUGCU [Eternabot (L1) Solution 37] (Eterna round: R97, puzzle: Exclusion 1) | 18 |  | 14.9 |  |  | 
10 | GGUCGUAGACAGGAUAUGCGGCAAAUAAAUAAAGCAGAAGGGUCUACUUGAGGAUCACCCAAGUGGGCGGUUAA [jl-ex6-4.18 ViennaUCT mod] (Eterna round: R97, puzzle: Exclusion 6) | 103 |  | 17.7 |  |  | 
11 | GGUCUGCGAGGAUAUACAUGAGGAUCACCCAUGUGAGAGUUACUAGUGAGGUCGAUUGGUAGAAGGCGCGGACG [JL-ex3-2.04 salish99 mod] (puzzle: Exclusion 3) |  |  |  | 19 | 103 | 154
12 | GGUGAAGCAGGAUAUGUACCAAUAUACAUGAGGAUCACCCAUGUCAUGUAGGAACUGCGUAUAGAAGGGCUUCACC [Exclusion 5 (FMN-MS2 slide v.7)] (Eterna round: R97, puzzle: Exclusion 5) | 123 |  | 55 |  |  | 
13 | GGUGCGUAUGUGAGGAUAUGCUGGUCCUUGGAUCAGCAGAAGGCACAUGAGGAUCACCCAUGUGGUGUCGUACU [salish99_Bmod_Ex4_013] (puzzle: Brourd's mod of Exclusion 4) |  |  |  |  | 266 | 
14 | GGUGCGUAUGUGAGGAUAUGCUGGUCCUUGGGUCGGCAGAAGGCACAUGAGGAUCACCCAUGUGGUGUCGUUCC [salish99_Bmod_ex4_101] (Eterna round: R96, puzzle: Brourd's mod of Exclusion 4) | 378 | 80.3 | 122 |  |  | 
15 | GGUGCGUAUGUGAGGAUAUGCUGGUCCUUGGGUCGGCAGAAGGCACAUGAGGAUCACCCAUGUGGUGUCGUUCC [salish99_Bmod_ex4_101] (puzzle: Brourd's mod of Exclusion 4) |  |  |  |  | 68 | 
16 | GGUGCGUUUGUGAGGAUAUGCUGGUCCUUGGAUCGGCAGAAGGCACAUGAGGAUCACCCAUGUGGUGUCGUACC [salish99_Bmod_Ex4_035] (puzzle: Brourd's mod of Exclusion 4) |  |  |  |  | 280 | 
17 | GGUGGACAUGAGGAUCACCCAUGUGAGGAUAUCGGCUAUCUUGUCGCUGUCGGUUGCUCGAGAAGGCACAUUGU [Exclusion 1 V95] (puzzle: Exclusion 1) |  |  |  |  | 69.2 | 
18 | GGUGGGCUAGGAUAUGCUUUGGGCGGGCAUUCCUUCGAUAAACUUGAGGAUCACCCAAGUAGAAGGAGCUUGCC [salish99_ex2_r4_024] (Eterna round: R97, puzzle: Exclusion 2) | 16.2 |  | 12.3 |  |  | 
19 | GGUUAUUGCAAGGAUAUGCUUUUUUUUUAUUUUGCAGAAGGUGCAACAUGAGGAUCACCCAUGUUGGAGGGUUU [JR_E6_Sub023] (puzzle: Exclusion 6) |  |  |  |  | 21.7 | 
20 | GGUUGACAUGAGGAUCACCCAUGUGAGGAUAUGCGAGAGAAAAAAGUGAGGAAGUAAAGCAGAAGGCGCUGUCG [salish99-ex1_r3_004] (puzzle: Exclusion 1) |  |  |  | 51.6 | 200 | 449
21 | GGUUGACAUGAGGAUCACCCAUGUGAGGAUAUGCGAGAGAAAAAAGUGAGGAAGUUUAGCAGAAGGCGCUGUCG [salish99-ex1_r3_006] (puzzle: Exclusion 1) |  |  |  | 55.6 | 71 | 97.7
22 | GGUUGGCGAGGAUAUACAUGAGGAUCACCCAUGUGAGAAGAAAAAGUGAGGAAGAAAAGUAGAAGGCGCUGACG [Mat - Exclusion 3 - Mod of Salish D1] (puzzle: Exclusion 3) |  |  |  | 74 | 103 | 81.5
23 | GGUUGGCGAGGAUAUACAUGAGGAUCACCCAUGUGAGAGAAAAAACUGAGGAAGAAAAGUAGAAGGCGCUGACG [salish99_ex3_r3_026] (puzzle: Exclusion 3) |  |  |  | 117 | 23.4 | 35.5
24 | GGUUGGCGAGGAUAUACAUGAGGAUCACCCAUGUGAGAGAAAAAAGUGCGGAAGAAAAGUAGAAGGCGCUGACG [salish99_ex3_r3_029] (puzzle: Exclusion 3) |  |  |  | 82.7 | 25.1 | 25.7
25 | GGUUGGCGAGGAUAUACAUGAGGAUCACCCAUGUGAGAGAAUAAGUGAGGAAAGAAAAGUAGAAGGCGCUGACG [Mat - Exclusion 3 - Mod of Salish D52] (puzzle: Exclusion 3) |  |  |  | 117 | 44.5 | 55.1
26 | GGUUGGCGAGGAUAUACAUGAGGAUCACCCAUGUGAGGGAAAAAAGUGAGAACGAAAAGUAGAAGGCGCUGACG [salish99_ex3_r3_063] (puzzle: Exclusion 3) |  |  |  | 10.5 | 54 | 80.5
27 | GGUUGGCGAGGAUAUACAUGAGGAUCACCCAUGUGUGAGAAAAAAGUGAGGAAGAAAAGUAGAAGGCGCUGACG [salish99_ex3_r3_007] (puzzle: Exclusion 3) |  |  |  | 30.2 | 70.7 | 62.1
28 | GGUUGUCGAGGAUAUACUAGGGACCGAUCGAUCGGAACUUCACAUGAGGAUCACCCAUGUAGAAGGCGACAAUC [Eternabot (L1) Solution 57] (Eterna round: R97, puzzle: Exclusion 2) | 116 |  | 174 |  |  | 
29 | GGUUUUUCUGAGGAUAUUGCAUCACCCGAUUUAUAAGAAGGCAGAACAUGAGGAUCACCCAUGUGGGUCUCUAG [Bingo-Bango-27] (Eterna round: R97, puzzle: Exclusion 6) | 24.4 |  | 15.7 |  |  | 
30 | GUAAACGUAUAGGAUAUUUCAGGUCAAAGCUGCAAAGAAGGAUGCACAUGAGGAUCACCCAUGUGGUCAAUAAA [Mod of Quesina 24 - Jieux - Exclusion 6] (Eterna round: R97, puzzle: Exclusion 6) | 25.7 |  | 22.2 |  |  | 
